Target: T1, CXCR2 on the surface of neutrophils (primary neutrophils from blood of C57BL/6 mice) (mouse, UniProt P35343 1-359)
T1 construct: whole, on cells; No CXCR2-specific control is reported
T1 sequence (looked up): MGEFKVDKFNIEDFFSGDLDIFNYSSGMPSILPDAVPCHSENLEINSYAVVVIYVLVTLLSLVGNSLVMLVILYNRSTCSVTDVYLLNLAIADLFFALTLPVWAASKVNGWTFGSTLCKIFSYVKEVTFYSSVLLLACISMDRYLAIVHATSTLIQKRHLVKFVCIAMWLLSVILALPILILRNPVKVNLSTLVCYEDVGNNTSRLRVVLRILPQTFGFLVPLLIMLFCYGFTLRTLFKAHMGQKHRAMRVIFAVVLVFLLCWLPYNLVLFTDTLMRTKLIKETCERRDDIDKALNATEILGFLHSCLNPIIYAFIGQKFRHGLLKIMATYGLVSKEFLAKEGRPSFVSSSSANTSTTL
Assay: flow cytometry on primary mouse blood neutrophils, anti-His tag PE detection

B1: Nb127D01 (VHH)
VHH: EVQLVESGGGLVQAGESLRLSCAASGSTFDFKVMGWYRQPPGKQREGVAAIRLSGNMHYAESVKGRFAISKANAKNTVYLQMNSLRPEDTAVYYCKVNIRGQDYWGQGTQVTVSS
notes: Expressed in E. coli BL21(DE3) as signal peptide + nanobody + HA-His tag and purified on a nickel column by the His tag; The signal peptide is left out here as a secretion signal; also called Nb127D01-HA-his; not shown: HA-His tag linked directly to the C-terminus
B1: binds.

B2: Nb163E3 (VHH)
VHH: EVQLVESGGGLVQPGGSVRLSCVASGRIFSSNAMGWFRQAPGKEREFVAAITWRSGGSAYYADSAKGRFTISRDNAKNTVYLQMNSLKPEDTAVYYCAAGGSSWLSFPPDYWGQGTQVTVSS
notes: Expressed in E. coli BL21(DE3) as signal peptide + nanobody + HA-His tag and purified on a nickel column by the His tag; The signal peptide is left out here as a secretion signal; also called Nb163E3-HA-his; not shown: HA-His tag linked directly to the C-terminus
B2: binds.

From patent EP4741425A1 (Shenzhen Synthetica Pioneering Co., Ltd., dated 2026)
